In one experiment the target is T1, rat PDGF-B (PR-1645048) (rat, UniProt Q05028 74-182).
T1 construct: Lot 2235300; also called rat PDGF-BB; ratPDGF-BB
Nature of the experiment: SPR (Biacore), antibody captured by anti-human Fc, antigen injected. On the procedure: Unreacted moieties on the biosensor surface were blocked with ethanolamine. For kinetic analysis, rate equations derived from the 1:1 Langmuir binding model were fitted simultaneously to multiple antigen injections (using global fit analysis) with the use of Scrubber 2 (BioLogic Software), Biacore Biaevaluation 4.0.1 software or Biacore T100 Evaluation software. Purified antibodies or DVD-Ig molecules were diluted in running buffer for capture across goat anti-human Fc reaction surfaces. Antibodies or DVD-Ig molecules to be captured as a ligand (1 μg/ml) were injected over reaction matrices at a flow rate of 10 μl/minute. During the assay, all measurements were referenced against the capture surface alone (i.e., with no captured antibody or DVD-Ig molecule). […] The equilibrium dissociation constant KD (M) of the reaction between antibodies and the target antigen was then calculated from the kinetic rate constants by the following formula: KD=Koff/Kₒₙ. Binding was recorded as a function of time and kinetic rate constants were calculated. In this assay, on-rates as fast as 10⁶M⁻¹s⁻¹ and off-rates as slow as 10⁻⁶ s⁻¹ could be measured.

Experiment [1] deals with T2, recombinant human PDGF-BB (human, UniProt P01127 82-190, biotin-labelled in the binding and competition ELISAs (sites not given)).
T2 construct: Bought protein (CST cat#8912BF) in the ELISAs and cell assays; purified recombinant PDGF-BB in Biacore; also called huPDGF-BB; hPDGF-BB
T2 sequence (P01127 82-190 limits assumed): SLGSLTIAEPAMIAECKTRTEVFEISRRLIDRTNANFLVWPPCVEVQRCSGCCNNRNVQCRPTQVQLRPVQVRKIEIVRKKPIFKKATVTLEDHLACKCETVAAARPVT
Description: receptor competition ELISA: antibody pre-incubated with biotin-hPDGF-BB, binding to coated hPDGF-Rβ-Fc. The protocol:
(§1) Plates were then washed four times with wash buffer (TBS, 0.05% Tween-20) and blocked with Superblock blocking buffer (Thermo Scientific, cat#37535). During the blocking step, supernatants, antibodies, benchmark compounds or DVD-Ig were diluted in assay diluent (10% Superblock containing 0.05% surfactamps) and an eight point titration of each sample molecule was performed. […] Following incubation, plates were washed four times with wash buffer. Detection reagent Streptavidin-polyHRP-40 (Fitzgerald, cat#65r-s104phrp) was diluted in assay diluent and added to plates (50 μL) for 45 minutes at 25° C. with shaking. Plates were washed four times with wash buffer and developed with the addition of Enhanced K-blue TMB substrate (Neogen, cat#308177). The reaction was stopped with 2N sulfuric acid (VWR, cat# BDH3500-1) and the absorbance was read at 450 nm-570 nm. […] Data was analyzed using Softmax Pro 4.8 software and IC₅₀ values calculated using a sigmoidal dose response (variable slope) fit in GraphPad Prism 5.
A general note: In an ELISA, binding on a coated surface is turned into a signal by an enzyme label.

In experiment [2] the target is recombinant rat PDGF-BB (rat, UniProt Q05028 74-182). Description: cell-based or functional assay.
Target sequence in this assay (Q05028 74-182 limits assumed): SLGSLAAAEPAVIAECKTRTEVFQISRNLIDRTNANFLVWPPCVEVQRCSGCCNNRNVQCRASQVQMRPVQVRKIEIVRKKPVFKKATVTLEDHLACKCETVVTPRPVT
In experiment [3] the target is T2, recombinant human PDGF-BB. Nature of the experiment: cell-based or functional assay.
Experiment [4] concerns the target recombinant rat PDGF-BB (rat, UniProt Q05028 74-182). Nature of the experiment: cell-based or functional assay. The source holds these as a separate data set.
Target sequence in this assay (Q05028 74-182 limits assumed): as above
The target in experiment [5] is T3, recombinant human PDGF-BB (human, UniProt P01127 82-190). Description: cell-based or functional assay.
T3 sequence (P01127 82-190 limits assumed): as the sequence (P01127 82-190 limits assumed) above
The target in experiment [6] is T3, recombinant human PDGF-BB. Description: competition ELISA: blocks biotin-hPDGF-BB binding to coated hPDGF-Rβ-Fc. The protocol:
as §1

Experiment [7] has as its target T4, recombinant human VEGF-R2-Fc (human, UniProt P35968 20-764).
T4 construct: Bought Fc fusion (R&D Systems cat#357-KD); also called hVEGFR2-Fc; VEGF-R2 (KDR/Flk-1); not shown: Fc part of the bought fusion protein
Description: competition ELISA: antibody added to coated hVEGF-R2-Fc, then biotinylated hVEGF165 (competitor). The protocol:
To identify molecules which could block the binding of VEGF-R2 (KDR/Flk-1) to hVEGF₁₆₅, a competition ELISA was performed. […] Plates were then washed four times with wash buffer (TBS, 0.05% Tween-20) and blocked with Superblock blocking buffer (Thermo Scientific, cat#37535). […] The samples were added to wells and incubated for 30 minutes at 25° C. with shaking. […] Following incubation, plates were washed four times with wash buffer. Streptavidin-polyHRP-40 (Fitzgerald cat#65r-s104phrp) was diluted in assay diluent (10% Superblock containing 0.05% surfactamps) and added to plates (50 μL) for 45 minutes at 25° C. with shaking. Plates were washed four times with wash buffer and developed with the addition of Enhanced K-blue TMB substrate (Neogen cat#308177). The reaction was stopped with 2N sulfuric acid (VWR, cat# BDH3500-1) and the absorbance was read at 450 nm-570 nm. A decrease in observed optical density indicates the test molecule is blocking the human VEGF-R2-Fc binding to hVEGF₁₆₅. Data was analyzed using Softmax Pro 4.8 software and IC₅₀ values calculated using a sigmoidal dose response (variable slope) fit in GraphPad Prism 5.
Humanized anti-VEGFR2 antibodies were tested for potency against hVEGFR2 in functional assay formats. The antibodies were characterized for the ability to block VEGFR2 binding to hVEGF₁₆₅ in a competition ELISA format (Example 1.22).

Numbering of substitutions follows the chain as printed.

T1 sequence (Q05028 74-182 limits assumed): as the sequence (Q05028 74-182 limits assumed) above
T4 sequence (P35968 20-764 limits assumed): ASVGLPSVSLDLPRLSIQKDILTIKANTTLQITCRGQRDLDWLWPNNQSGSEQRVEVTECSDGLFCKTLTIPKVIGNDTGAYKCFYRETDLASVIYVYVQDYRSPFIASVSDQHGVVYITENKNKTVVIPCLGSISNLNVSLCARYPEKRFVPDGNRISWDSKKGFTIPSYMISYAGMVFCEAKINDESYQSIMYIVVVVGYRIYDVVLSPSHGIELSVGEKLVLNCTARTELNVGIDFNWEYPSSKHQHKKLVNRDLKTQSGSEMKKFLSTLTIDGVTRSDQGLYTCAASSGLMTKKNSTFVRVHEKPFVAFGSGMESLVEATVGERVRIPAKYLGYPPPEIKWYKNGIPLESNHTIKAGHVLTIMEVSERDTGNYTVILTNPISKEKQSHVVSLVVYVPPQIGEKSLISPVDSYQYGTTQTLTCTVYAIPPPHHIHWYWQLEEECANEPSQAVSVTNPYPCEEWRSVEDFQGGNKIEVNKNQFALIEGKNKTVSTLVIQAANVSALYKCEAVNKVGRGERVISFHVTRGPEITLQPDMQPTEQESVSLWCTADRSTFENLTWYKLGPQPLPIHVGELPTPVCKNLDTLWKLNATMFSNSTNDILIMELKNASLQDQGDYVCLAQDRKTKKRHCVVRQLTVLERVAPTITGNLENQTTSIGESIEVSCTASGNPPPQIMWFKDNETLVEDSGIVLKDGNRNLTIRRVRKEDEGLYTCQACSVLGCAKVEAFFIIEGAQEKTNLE

B1: CL-33675 (antibody, V domains shown)
VH: EVTLRESGPALVKPTQTLTLTCTFSGFSLSTYGMGVGWIRQPPGKALEWLANIWWDDDKYYNPSLKNRLTISKDTSKNQVVLTMTNMDPVDTATYYCARIESSGPKYSFDYWGQGTMVTVSS
VL: EIVLTQSPGTLSLSPGERATLSCRASSGSIWYSFVSWYQQKPGQAPRLLIYADDQRASGIPDRFSGSGSGTDFTLTISRLEPEDFAVYYCQSYGINIDVVFGGGTKVEIK
notes: Converted to IgG; also called CL-33675-IgG; PR-1593725
Turning to B1, in the experiment with rat PDGF-B (PR-1645048), the Kd (in general, the constant that tells how readily two partners part at equilibrium) was at most 0.58 pM; the off-rate (koff) (as a rule, the first-order rate constant of dissociation) is 5.8e-06 s⁻¹; the kon (in general, the rate constant with which the complex forms) was at least 1e+07 M⁻¹ s⁻¹.

B2: chBDI-5G2 (antibody, human IgG1, V domains shown)
VH: QVTLKESGPGILQPSQTLSLTCTFSGFSLSTFGMGVGWIRQPSGKGLEWLANIWWDDDKYYNPSLKNRLTISKDTSNSQAFLEITNVDTADTATYYCARISTGISSYYVMDAWGQGASVTVSS
VL: QFTLTQPKSVSGSLRSTITIPCERSSGDIGDTYVSWYQQHLGRPPINVIYGNDQRPSEVSDRFSGSIDSSSNSASLTITNLQMDDEADYFCQSYDSDIDIVFGGGTKLTVL
notes: also called chimeric BDI-5G2-F9
Consider B2, for which the IC50 (commonly the concentration needed to halve the response being measured) in experiment [1] was determined as 1080 pM. In the experiment with recombinant rat PDGF-BB [2], the “ratPDGF-BB Neutralization Potency (nM) in NIH-3T3 Cells” value worked out at 0.118 nM. For the same molecule, in experiment [3], the “huPDGF-BB Neutralization Potency (nM) in NIH-3T3 Cells” value (“huPDGF-BB Neutralization Potency (nM)” for short) turned out to be 0.181 nM.

B3: BDI-9E8-E7 (antibody, IgG2b, V domains shown)
VH: QVTLKESGPGILQPSQTLSLTCTFSGFSLSTYGMGVGWIRQPSGKGLEWLANIWWDDDKYYNPSLKNRLTISKDTSNNQAFLKITNVDTADTATYYCARIESIGTTYSFDYWGQGVMVTVSS
VL: B2 VL with T32S, G51A, N52D, S96I, D97N
notes: Rat hybridoma monoclonal antibody
With B3, the “Phospho-Tyr751/ratPDGF-BB Neutralization” value with recombinant rat PDGF-BB [4] came to 0.333 nM. Further, in experiment [5], the “Phospho-Tyr751/hPDGF-BB Neutralization” value came out at 0.629 nM and the “huPDGF-BB Neutralization Potency (nM)” value stood at 0.195 nM. Moreover, the half-inhibitory concentration (IC50) in experiment [6] worked out at 1120 pM.

B4: BDI-5H1-F6 (antibody, IgG2b, V domains shown)
VH: B2 VH
VL: B2 VL
notes: as for B3
Turning to B4, the “Phospho-Tyr751/ratPDGF-BB Neutralization” value with recombinant rat PDGF-BB [4] came to 0.319 nM. In experiment [5], the “Phospho-Tyr751/hPDGF-BB Neutralization” value was 0.884 nM and the “huPDGF-BB Neutralization Potency (nM)” value turned out to be 0.371 nM. Further, the 50% inhibitory concentration (IC50) in experiment [6] was 528 pM.

B5: hBCU-6B1.2 (antibody, V domains shown)
VH: EVQLVQSGAEVKKPGASVKVSCKASGYTFTNYGMYWVKQAPGQGLEFMGWINTETGQPTYADDFKGRFTFTLDTSTSTAYMELRSLRSDDTAVYFCARLGNNYGIWFAYWGQGTLVTVSS
VL: DIQMTQSPSSLSASVGDRVTIECRASDDLYSTLAWYQQKPGKSPKLLIFDANRLAAGVPSRFSGSGSGTDYSLTISSLQPEDVATYFCQQYNKFPWTFGGGTKVEIK
notes: Humanized anti-human VEGFR II IgG from pHybE expression vectors
Consider B5, for which the half-maximal inhibitory concentration (IC50) in experiment [7] worked out at 340 pM.

B6: hBCU-6B1.4 (antibody, V domains shown)
VH: B5 VH with K38R, F95Y
VL: B5 VL with E22T, S72T
notes: as for B5
B6: the half-inhibitory concentration (IC50) in experiment [7] stood at 335 pM.

B7: hBCU-6B1.3 (antibody, V domains shown)
VH: B5 VH with K38R, F95Y
VL: B5 VL
notes: as for B5
With B7, in experiment [7], the half-maximal inhibitory concentration (IC50) is 319 pM.

B8: hBCU-6B1.1 (antibody, V domains shown)
VH: EVQLVQSGSELKKPGASVKVSCKASGYTFTNYGMYWVKQAPGQGLEFMGWINTETGQPTYADDFKGRFVFSLDTSVSTAYLQISSLKAEDTAVYFCARLGNNYGIWFAYWGQGTLVTVSS
VL: B5 VL
notes: as for B5
B8: the half-inhibitory concentration (IC50) in experiment [7] was 474 pM.

B9: BDI-7H10-D8 (antibody, IgG2b, V domains shown)
VH: EVKLQQSGDELVRPGASVKMSCKASGYTFTDYAMHWVKQSPGQGLEWIGTIIPLIDTTSYNQKFKGKATLTADTSSNTAYMELSRLTSEDSAVYYCARDWDNNWGYFDYWGQGVMVTVSS
VL: DVVLTQTPVSLSVTLGDQASISCRSSQSLEYSDGYTYLEWYLQKPGQSPQLLIYGVSNRFSGVPDRFIGSGSGTDFTLKISRVEPEDLGVYYCFQATHDPLTFGSGTKLEIK
As for B9, the “Phospho-Tyr751/ratPDGF-BB Neutralization” value in the experiment with recombinant rat PDGF-BB [4] is over 5 nM.

Source of the values: US20170015742A1 (published 2017).
